# Patent US20190194253A1 (ARIEL UNIVERSITY RESEARCH AND DEVELOPMENT, published 2019)
# Bridge positions count the residues as written; N and C are the ends. Ends that are not written are not given here.
# Tests used:
# [1] = target: T1, bovine serum albumin (bovine, UniProt P02769 25-607); test: FITC-labeled peptide added for 30 min to BSA-coated wells, fluorescence plate reader
# T1 construct: Control protein coated on wells; also called BSA
# Description: FIG. 7 is a graph illustrating binding of Fluorescein (FITC)—labeled ALOS peptides to purified Integrin αvβ3, collagen (CG) and bovine serum albumin (BSA). Peptides (concentrations 100 uM, 30 uM, 10 uM, luM) were added to integrin pre-coated wells for 30 min. The fluorescence was measured using Enspire plate reader (PerkinElmer). The plots were built using nonlinear regression analysis (GraphPad Prism).
# Binding assay: The binding of peptides to immobilized purified integrin alpha-v-beta3 was evaluated using a fluorescein (FITC) labeled peptides. Purified integrin alpha-v-beta3 was first immobilized onto high-protein binding 96-well plates for 2 hour at 37° C. followed by blocking for two hours with 5% fat dry milk in TBS. After that, plates were washed four times with 200 μl TBS. a) For saturation assays plates were incubated with 100 μl of FITC-labeled peptides solutions in 0.01% BSA in Saline for 30 min at RT. B) For competition assays plates were incubated with different concentrations of unlabeled peptides for 30 min in RT followed by addition of fixed concentration of FITC-labeled peptides and additional incubation for 30 min. Wells were washed twice with TBS. After second wash 100 μl of TBS was added to the each well and fluorescence signal was read at excitation 490 nm and emission 525 nm using Enspire Plate reader (PerkinElmer). Binding data analysis was performed using Prism software (GraphPad Software, San Diego, Calif.). Binding curves were fit using nonlinear regression approaches.
# [2] = target: T1, bovine serum albumin; test: FITC-peptide saturation binding on coated wells, fluorescence plate reader
# [3] = target: T2, purified Integrin αvβ3 (UniProt P06756 31-992; P05106 27-718, limits assumed); test: saturation binding of ALOS4-FITC in wells pre-coated with integrin αvβ3, fluorescence, nonlinear regression; direct saturation binding of ALOS4-FITC on αvβ3-coated wells (panel A)
# T2 construct: Purified integrin coated on 96-well plates; also called integrin alpha-v-beta3; αVβ3 integrin
# T2 sequence (P06756 31-992 limits assumed, chain 1 of 2): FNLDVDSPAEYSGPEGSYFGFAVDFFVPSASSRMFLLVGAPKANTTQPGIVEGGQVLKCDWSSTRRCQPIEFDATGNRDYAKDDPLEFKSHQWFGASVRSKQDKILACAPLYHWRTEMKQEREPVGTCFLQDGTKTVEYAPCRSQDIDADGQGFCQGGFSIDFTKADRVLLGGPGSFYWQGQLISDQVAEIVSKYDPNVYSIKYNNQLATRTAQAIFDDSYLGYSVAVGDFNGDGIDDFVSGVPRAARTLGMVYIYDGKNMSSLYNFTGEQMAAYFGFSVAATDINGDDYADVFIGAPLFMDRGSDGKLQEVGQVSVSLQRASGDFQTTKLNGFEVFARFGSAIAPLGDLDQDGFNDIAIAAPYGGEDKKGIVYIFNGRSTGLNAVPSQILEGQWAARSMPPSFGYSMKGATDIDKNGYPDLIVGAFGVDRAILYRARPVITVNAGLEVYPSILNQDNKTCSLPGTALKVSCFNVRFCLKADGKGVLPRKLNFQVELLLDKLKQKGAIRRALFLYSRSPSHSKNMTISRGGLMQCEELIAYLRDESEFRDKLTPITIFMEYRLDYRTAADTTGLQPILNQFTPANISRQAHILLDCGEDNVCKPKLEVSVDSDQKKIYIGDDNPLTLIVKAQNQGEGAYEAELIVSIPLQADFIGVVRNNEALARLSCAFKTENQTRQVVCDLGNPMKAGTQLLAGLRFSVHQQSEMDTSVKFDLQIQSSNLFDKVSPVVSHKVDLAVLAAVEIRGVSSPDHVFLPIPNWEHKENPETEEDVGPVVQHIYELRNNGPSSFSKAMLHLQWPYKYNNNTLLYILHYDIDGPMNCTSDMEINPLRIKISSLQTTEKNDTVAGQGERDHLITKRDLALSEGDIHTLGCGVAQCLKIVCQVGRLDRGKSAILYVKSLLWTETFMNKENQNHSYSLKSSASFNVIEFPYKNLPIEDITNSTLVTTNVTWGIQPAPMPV
# T2 sequence (P05106 27-718 limits assumed, chain 2 of 2): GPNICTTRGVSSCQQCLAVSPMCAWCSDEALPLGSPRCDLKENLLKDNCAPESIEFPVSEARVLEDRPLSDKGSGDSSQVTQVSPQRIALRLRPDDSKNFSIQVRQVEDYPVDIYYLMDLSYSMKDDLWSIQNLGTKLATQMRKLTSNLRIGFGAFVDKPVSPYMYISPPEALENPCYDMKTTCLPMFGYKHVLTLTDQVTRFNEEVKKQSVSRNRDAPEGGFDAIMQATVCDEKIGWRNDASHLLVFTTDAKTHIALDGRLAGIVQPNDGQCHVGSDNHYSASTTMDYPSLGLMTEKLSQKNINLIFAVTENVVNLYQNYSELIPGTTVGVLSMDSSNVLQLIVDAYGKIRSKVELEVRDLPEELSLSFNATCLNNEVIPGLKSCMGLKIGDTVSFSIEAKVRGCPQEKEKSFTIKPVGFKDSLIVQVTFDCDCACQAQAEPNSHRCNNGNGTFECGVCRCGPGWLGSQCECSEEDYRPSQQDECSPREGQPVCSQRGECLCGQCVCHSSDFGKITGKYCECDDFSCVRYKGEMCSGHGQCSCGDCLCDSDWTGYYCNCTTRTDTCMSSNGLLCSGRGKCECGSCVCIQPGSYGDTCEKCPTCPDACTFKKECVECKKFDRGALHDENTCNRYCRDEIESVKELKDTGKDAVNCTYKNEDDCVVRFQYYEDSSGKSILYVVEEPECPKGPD
# Description: (§1) FIGS. 12A-12D illustrate selective binding of ALOS4 to αvβ3. (A) ALOS4-FITC binding in wells pre-coated with integrin αvβ3. […] (B) ALOS4-FITC binding in wells coated with collagen or BSA. (C) Binding of random, FTIC-labeled cyclic peptide controls (DPDFP and DSLFP) in wells pre-coated with integrin αvβ3. (D) Competitive homologous binding of ALOS4 to αvβ3 integrin. 10 μM of ALOS4-FITC peptide was incubated with different concentrations of unlabeled ALOS4 on wells pre-coated with αvβ3. […] Data are expressed as percent reduction of maximal fluorescence signal.
# (§2) Binding assay: The binding of peptides to immobilized purified integrin alpha-v-beta3 was evaluated using a fluorescein (FITC) labeled peptides. Purified integrin alpha-v-beta3 was first immobilized onto high-protein binding 96-well plates for 2 hour at 37° C. followed by blocking for two hours with 5% fat dry milk in TBS. After that, plates were washed four times with 200 μl TBS. a) For saturation assays plates were incubated with 100 μl of FITC-labeled peptides solutions in 0.01% BSA in Saline for 30 min at RT. […] After second wash 100 μl of TBS was added to the each well and fluorescence signal was read at excitation 490 nm and emission 525 nm using Enspire Plate reader (PerkinElmer). […]
# [4] = target: T2, purified Integrin αvβ3; test: saturation binding: ALOS4-FITC in wells pre-coated with integrin αvβ3, % of total binding
# Description: as §1, §2
# [5] = target: T1, bovine serum albumin; test: ALOS4-FITC in wells coated with BSA, % of total binding
# Description: as §1, §2
# [6] = target: T2, purified Integrin αvβ3; test: competitive homologous binding: varied unlabeled ALOS4 against 10 µM ALOS4-FITC on αvβ3-coated wells; competitive homologous binding, unlabeled ALOS4 against 10 µM ALOS4-FITC (panel D)
# Description: as §1, §2
# T1 sequence (P02769 25-607 limits assumed): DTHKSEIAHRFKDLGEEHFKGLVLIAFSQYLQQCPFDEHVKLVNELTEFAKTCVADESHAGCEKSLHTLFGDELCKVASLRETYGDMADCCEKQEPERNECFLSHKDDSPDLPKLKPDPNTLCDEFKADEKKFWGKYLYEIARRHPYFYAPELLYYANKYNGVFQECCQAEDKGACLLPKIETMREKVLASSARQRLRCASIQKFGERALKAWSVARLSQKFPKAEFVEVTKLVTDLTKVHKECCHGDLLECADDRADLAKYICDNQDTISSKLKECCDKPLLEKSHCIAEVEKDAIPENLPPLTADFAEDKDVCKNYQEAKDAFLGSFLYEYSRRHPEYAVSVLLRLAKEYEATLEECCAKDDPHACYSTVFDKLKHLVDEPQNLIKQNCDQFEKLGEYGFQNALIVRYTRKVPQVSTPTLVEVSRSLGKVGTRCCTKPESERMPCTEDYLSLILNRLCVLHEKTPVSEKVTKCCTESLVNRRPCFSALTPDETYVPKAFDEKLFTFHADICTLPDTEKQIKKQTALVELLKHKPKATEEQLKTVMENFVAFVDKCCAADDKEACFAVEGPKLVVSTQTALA
binder,measurement,setting,value
"CNLSSSWIC (not fully specified (bridges); cysteine pairing not given here; also: FITC label, position not given here, Synthetic peptide from the phage display screen; also called ALOS peptides; ALOSs) [ALOS-1, fluorescein (FITC)-labeled]",binding result,[1],no binding (tested: 100 µM)
"CAPSPSRLC (not fully specified (bridges); cysteine pairing not given here; also: FITC label, position not given here, Synthetic peptide from the phage display screen; also called ALOS peptides; ALOSs) [ALOS-3, fluorescein (FITC)-labeled]",binding result,[1],no binding (tested: 100 µM)
"CPLHARLPC (not fully specified (bridges); cysteine pairing not given here; also: FITC label, position not given here, Synthetic peptide from the phage display screen; also called ALOS peptides; ALOSs) [ALOS-5, fluorescein (FITC)-labeled]",binding result,[2],no binding
"CSSAGSLFC (disulfide 1-9 (inferred); also: FITC label, position not given here, Synthetic peptide from the phage display screen; also called ALOS4-FITC; ALOS peptides) [ALOS-4, fluorescein (FITC)-labeled]",Kd,[3],192 nM
same,EC50 (read off the curve),[4],~200 nM
same,binding result,[5],no binding (tested: 100 µM)
"CPPSNHLLC (not fully specified (bridges); cysteine pairing not given here; also: FITC label, position not given here, Synthetic peptide from the phage display screen; also called ALOS peptides; ALOSs) [ALOS-2, fluorescein (FITC)-labeled]",binding result,[1],no binding (tested: 100 µM)
"CSSAGSLFC (disulfide 1-9 (inferred), Its concentration was varied) [unlabeled ALOS4]",Kd,[6],2550 nM
